The Human Domainome abundance scans (Beltran et al. 2025)

B1: Arginine-glutamic acid dipeptide repeats protein, residues 502 to 543; numbered along this chain, Q9P2R6 (parent)
chain: LKGYACRHCFTTTSKDWHHGGRENILLCTDCRIHFKKYGELP

Variants of: B1
Test: abundance fitness (aPCA) (normalised: wild type 0, dead -1); higher = more abundant; growth selection in yeast, the domain comes from the species named
Settings: Homo sapiens

Abundance fitness of substitutions, site by site:
D30: K -0.098; P -0.058; Q -0.07; W -0.352; G -0.044
D16: E -0.15; K -0.154; G -0.342; M -0.397; T -0.391; W -0.515; S -0.263; Y -0.555; H -0.501
H34: Q -0.098; A -0.033; I -0.472; D -0.32; W -0.001; S -0.04; G -0.193; L -0.282; M -0.204; F -0.218; R -0.258
K15: W -0.489; I -0.222; N -0.324; V -0.091; E 0.007; R -0.053; A -0.107
L1: F 0.014; T 0.066; V 0.054; S -0.003; R -0.083
T11: Y -0.607; V -0.195; K -0.172; D -0.277; E -0.4; I -0.204; G -0.241
N24: G -0.026; E -0.105; L -0.191; A -0.146; C -0.349; Y -0.249; R -0.146; P -0.261
Y38: D -0.114; Q -0.062; V 0.022; T 0.123; A -0.077; K -0.002; R -0.084; C 0.059
C31: Y -0.911; A -0.981; L -1.1; R -1.16; V -1.08; D -0.527
L26: M 0.023; S -0.36; K -0.268; E -0.167; G -0.307; R -0.2; Q -0.376; D -0.244; I 0.004; T -0.05
C28: Q -0.746; W -1; Y -0.617; R -0.921; L -1.13; F -0.789; P -0.853; E -0.685
I25: A -0.122; C -0.258; H -0.169; S -0.185; Y -0.187; W -0.073; F -0.213; T -0.04; P -0.141; M -0.15
K36: Q 0.123; M -0.095; E -0.012; A 0.081; C -0.134; T 0.009; V -0.038; F 0.294; S 0.008; R -0.029
G20: Q -0.179; I -0.151; E -0.066; P -0.375; Y -0.422; T -0.292; R -0.45
W17: D -0.197; V -0.157; C -0.295; S -0.198; Q -0.213; K -0.274; L -0.186
R32: C -0.114; T -0.088; V -0.14; E -0.045; L -0.058; D -0.001; G -0.029
T29: H -0.474; I -0.094; A -0.067; E -0.105; M -0.192; K -0.145; P -0.347; L -0.089; Q -0.106; Y 0.02; N -0.07
T13: P -0.484; V -0.125; N -0.043; L -0.223; I -0.282; A -0.054; F -0.179
L27: D -0.541; C -0.217; Q -0.498; P -0.396; V -0.276; E -0.318; G -0.494; Y -0.301; I -0.172
G39: D 0.053; V -0.42; E -0.078; L -0.249; Q -0.082; C -0.142; N 0.027; R -0.118; F -0.393
S14: W -0.657; G -0.291; A -0.228; R -0.451
Y4: F -0.032; P -0.257; T -0.074; H -0.084; Q -0.273; I -0.089; D -0.037; N 0.165; K -0.178
R7: I -0.188; E 0.064; S 0.021; K 0.087; Y -0.056; M -0.02; Q 0.036; H -0.441; F -0.185
C9: R -0.493; N -0.271; K -0.371; W -0.645; E -0.318; T -0.44; V -0.451; G -0.455; M -0.542
H8: N 0.064; R -0.229; G -0.222; C -0.259; K -0.368; A -0.189; L -0.489; S -0.136; E -0.348
A5: C 0.032; P -0.335; V -0.039; H 0.044; R 0.012
T12: F -0.314; L -0.338; M -0.241; W -0.669; P -0.317; Y -0.549
K37: M -0.089; T -0.032; A -0.034; P -0.278; R -0.026; H -0.182; Y -0.159
E40: Q -0.012; C -0.073; I -0.095; F -0.472; P -0.521; Y -0.143; D -0.101; K -0.044; V -0.036; L -0.122
F35: L -0.057; D -0.112; M -0.163; W 0.001; R -0.236
R22: M -0.172; C -0.067; T 0.011; V -0.039; E -0.02; A 0.044; W -0.132; Y 0.113; P -0.027; I -0.157
G3: S -0.107; R -0.135; L -0.205; Y -0.205; E -0.2; T -0.093; M -0.111; V -0.218; I -0.246; A -0.047; Q -0.373; W -0.391
K2: F -0.078; R -0.153; Y -0.477; H -0.374; I -0.241; V -0.023; W -0.401; N -0.046; D -0.004
C6: E -0.702; F -1.03; A -0.969; Y -1.05; S -0.939; V -1.12; Q -0.894; W -1.28
L41: C -0.223; H -0.416; S -0.325; T -0.044; V -0.246; A -0.317
F10: N -0.238; H 0.134; L -0.068; P -0.279; I -0.352; K 0.017; D -0.08; V -0.331; Q 0.03
G21: I -0.517; L -0.274; P -0.24; K -0.377; D -0.236; M -0.291; A -0.142; V -0.23
P42: G -0.519; L -0.491; E -0.3; R -0.654; Q -0.349; V -0.456
H19: D -0.225; S -0.026; P -0.046; R -0.047; M 0.008; T 0.095; F -0.064; I -0.045
H18: F -0.005; C -0.03; L -0.042; W -0.21; D 0.115; G 0.057; S 0.004; N -0.132
E23: S -0.174; K -0.136; T -0.104; M -0.187; Y -0.489; C -0.159; D 0.011
I33: S 0.017; P -0.465; C 0.103; L 0.074; A 0.079; Q 0.074; F -0.079; G 0.104; W -0.059
